The values below come from paper PMC4747346, “Interaction of RECQ4 and MCM10 is important for efficient DNA replication origin firing in human cells” (Oncotarget, 2015).

The target in the assay is T1, HIS-RECQ4 (full length, recombinant) (human, UniProt O94761 1-1208).
T1 construct: RECQ4; full length construct, a gift from Dr Yilun Liu; the construct itself is not described; also called H-R4; source: E. coli Rosetta pLysS, purified (HQ sepharose flow-through, PEI, HiTrap HP with imidazole, FLAG M2 beads)
T1 sequence (looked up): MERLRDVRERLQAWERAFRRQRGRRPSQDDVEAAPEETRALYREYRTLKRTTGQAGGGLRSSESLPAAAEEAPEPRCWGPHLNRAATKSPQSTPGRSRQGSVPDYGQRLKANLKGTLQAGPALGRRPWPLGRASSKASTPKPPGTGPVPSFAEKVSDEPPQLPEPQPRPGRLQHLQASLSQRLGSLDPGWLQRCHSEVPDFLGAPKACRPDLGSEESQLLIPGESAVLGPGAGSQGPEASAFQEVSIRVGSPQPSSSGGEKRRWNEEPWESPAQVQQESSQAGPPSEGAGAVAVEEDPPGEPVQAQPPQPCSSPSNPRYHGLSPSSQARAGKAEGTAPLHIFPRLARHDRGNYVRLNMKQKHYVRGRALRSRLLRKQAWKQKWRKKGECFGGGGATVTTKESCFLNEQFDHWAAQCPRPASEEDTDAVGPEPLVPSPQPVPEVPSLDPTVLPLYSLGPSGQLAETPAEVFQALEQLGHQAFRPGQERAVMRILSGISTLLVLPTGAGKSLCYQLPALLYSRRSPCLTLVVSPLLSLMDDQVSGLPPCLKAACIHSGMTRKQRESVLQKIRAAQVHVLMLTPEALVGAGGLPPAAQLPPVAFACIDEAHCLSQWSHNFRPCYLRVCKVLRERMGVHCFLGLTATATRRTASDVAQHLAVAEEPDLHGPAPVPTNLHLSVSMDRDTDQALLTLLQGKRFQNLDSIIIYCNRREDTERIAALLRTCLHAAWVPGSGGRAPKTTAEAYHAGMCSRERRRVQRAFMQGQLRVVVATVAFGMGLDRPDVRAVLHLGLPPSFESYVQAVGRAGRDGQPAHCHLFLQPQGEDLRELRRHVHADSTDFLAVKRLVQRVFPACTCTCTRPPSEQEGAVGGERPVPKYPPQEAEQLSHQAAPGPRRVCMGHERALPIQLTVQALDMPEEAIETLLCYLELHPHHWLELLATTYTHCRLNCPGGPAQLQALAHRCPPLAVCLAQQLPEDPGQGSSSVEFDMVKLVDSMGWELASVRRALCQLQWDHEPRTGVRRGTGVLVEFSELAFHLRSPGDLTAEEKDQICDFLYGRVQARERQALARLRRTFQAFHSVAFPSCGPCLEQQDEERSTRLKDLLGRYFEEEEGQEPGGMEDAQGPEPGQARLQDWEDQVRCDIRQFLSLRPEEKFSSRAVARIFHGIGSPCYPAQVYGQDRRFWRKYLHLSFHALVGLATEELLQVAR
Nature of the assay: SPR; BIAcore T100, 25°C; GST-MCM10 amine-coupled to a CM3 chip (500 response units); RECQ4 as analyte at 1, 0.5, 0.25, 0.125, 0.06 and 0.03 μM; flow 30 and 60 μl/min; HBS buffer (10 mM HEPES pH 7.4, 150 mM NaCl, 0.5 mM TCEP, 0.05% Tween20); global fit to a two state model. The settings on record: both partners purified. In general terms: Surface plasmon resonance follows binding to a sensor surface in real time, without labels.

B1: GST-MCM10 (natural protein, human, UniProt Q7L590 1-875, looked up)
chain: MDEEEDNLSLLTALLEENESALDCNSEENNFLTRENGEPDAFDELFDADGDGESYTEEADDGETGETRDEKENLATLFGDMEDLTDEEEVPASQSTENRVLPAPAPRREKTNEELQEELRNLQEQMKALQEQLKVTTIKQTASPARLQKSPVEKSPRPPLKERRVQRIQESTCFSAELDVPALPRTKRVARTPKASPPDPKSSSSRMTSAPSQPLQTISRNKPSGITRGQIVGTPGSSGETTQPICVEAFSGLRLRRPRVSSTEMNKKMTGRKLIRLSQIKEKMAREKLEEIDWVTFGVILKKVTPQSVNSGKTFSIWKLNDLRDLTQCVSLFLFGEVHKALWKTEQGTVVGILNANPMKPKDGSEEVCLSIDHPQKVLIMGEALDLGTCKAKKKNGEPCTQTVNLRDCEYCQYHVQAQYKKLSAKRADLQSTFSGGRIPKKFARRGTSLKERLCQDGFYYGGVSSASYAASIAAAVAPKKKIQTTLSNLVVKGTNLIIQETRQKLGIPQKSLSCSEEFKELMDLPTCGARNLKQHLAKATASGIMGSPKPAIKSISASALLKQQKQRMLEMRRRKSEEIQKRFLQSSSEVESPAVPSSSRQPPAQPPRTGSEFPRLEGAPATMTPKLGRGVLEGDDVLFYDESPPPRPKLSALAEAKKLAAITKLRAKGQVLTKTNPNSIKKKQKDPQDILEVKERVEKNTMFSSQAEDELEPARKKRREQLAYLESEEFQKILKAKSKHTGILKEAEAEMQERYFEPLVKKEQMEEKMRNIREVKCRVVTCKTCAYTHFKLLETCVSEQHEYHWHDGVKRFFKCPCGNRSISLDRLPNKHCSNCGLYKWERDGMLKEKTGPKIGGETLLPRGEEHAKFLNSLK
notes: MCM10, human; construct pGEX-4T-1-MCM10, a gift from Dr. Yilun Liu; also called G-M10; pGEX-4T-1-MCM10; source: E. coli, purified on GSH beads (kept on the beads for pull-downs; eluted with reduced glutathione for the peptide array)
A word on the Kd: it is the free concentration of one partner at which half of the binding sites on the other are occupied at equilibrium, for simple one-to-one binding. Turning to B1, the dissociation constant (Kd) stood at 170 ± 200 nM.
